± gives the standard deviation of the averaged measurements.
Assay: total protein half-life in vivo (active degradation + dilution); higher = more stable protein
[1] = E. coli NCM3722 delta-clpP delta-lon delta-hslV, growth: N-lim chemostat, doubling time 6 h
[2] = E. coli NCM3722 delta-clpP, growth: N-lim chemostat, doubling time 6 h
[3] = E. coli NCM3722 delta-hslV, growth: N-lim chemostat, doubling time 6 h
[4] = E. coli NCM3722 delta-lon, growth: N-lim chemostat, doubling time 6 h
[5] = E. coli NCM3722 delta-smpB, growth: N-lim chemostat, doubling time 6 h
[6] = wild type E. coli NCM3722, growth: C-lim chemostat, doubling time 3 h
[7] = wild type E. coli NCM3722, growth: C-lim chemostat, doubling time 12 h
[8] = wild type E. coli NCM3722, growth: N-lim chemostat, doubling time 6 h
[9] = wild type E. coli NCM3722, growth: N-lim chemostat, doubling time 12 h
[10] = wild type E. coli NCM3722, growth: P-lim chemostat, doubling time 6 h
[11] = wild type E. coli NCM3722, growth: P-lim chemostat, doubling time 12 h
[12] = wild type E. coli NCM3722, growth: C-lim chemostat, doubling time 6 h

Sequence	total protein half-life in vivo [1]	total protein half-life in vivo [2]	total protein half-life in vivo [3]	total protein half-life in vivo [4]	total protein half-life in vivo [5]	total protein half-life in vivo [6]	total protein half-life in vivo [7]	total protein half-life in vivo [8]	total protein half-life in vivo [9]	total protein half-life in vivo [10]	total protein half-life in vivo [11]	total protein half-life in vivo [12]
MAVHLLIVDALNLIRRIHAVQGSPCVETCQHALDQLIMHSQPTHAVAVFDDENRSSGWRHQRLPDYKAGRPPMPEELHDEMPALRAAFEQRGVPCWSTSGNEADDLAATLAVKVTQAGHQATIVSTDKGYCQLLSPTLRIRDYFQKRWLDAPFIDKEFGVQPQQLPDYWGLAGISSSKVPGVAGIGPKSATQLLVEFQSLEGIYENLDAVAEKWRKKLETHKEMAFLCRDIARLQTDLHIDGNLQQLRLVR	4.94 ± 0.096 h	4.23 ± 0.28 h	4.29 h	5.14 ± 0.59 h	3.86 ± 0.59 h	2.66 ± 0.54 h	10.7 ± 0.93 h	4.2 ± 0.5 h	8.02 h	5.06 ± 0.52 h	10.7 ± 1.7 h	–
MAVNLLKKNSLALVASLLLAGHVQATELLNSSYDVSRELFAALNPPFEQQWAKDNGGDKLTIKQSHAGSSKQALAILQGLKADVVTYNQVTDVQILHDKGKLIPADWQSRLPNNSSPFYSTMGFLVRKGNPKNIHDWNDLVRSDVKLIFPNPKTSGNARYTYLAAWGAADKADGGDKGKTEQFMTQFLKNVEVFDTGGRGATTTFAERGLGDVLISFESEVNNIRKQYEAQGFEVVIPKTNILAEFPVAWVDKNVQANGTEKAAKAYLNWLYSPQAQTIITDYYYRVNNPEVMDKLKDKFPQTELFRVEDKFGSWPEVMKTHFTSGGELDKLLAAGRN	4.09 ± 0.2 h	5.26 ± 0.17 h	6.24 ± 0.08 h	6.861 ± 0.011 h	5.74 ± 0.07 h	3.3 ± 0.27 h	10 ± 0.37 h	6.338 ± 0.056 h	12.8 ± 0.46 h	6.18 ± 0.1 h	12.4 ± 0.31 h	6.1057 ± 0.00027 h
MAWNQPGNNGQDRDPWGSSKPGGNSEGNGNKGGRDQGPPDLDDIFRKLSKKLGGLGGGKGTGSGGGSSSQGPRPQLGGRVVTIAAAAIVIIWAASGFYTIKEAERGVVTRFGKFSHLVEPGLNWKPTFIDEVKPVNVEAVRELAASGVMLTSDENVVRVEMNVQYRVTNPEKYLYSVTSPDDSLRQATDSALRGVIGKYTMDRILTEGRTVIRSDTQRELEETIRPYDMGITLLDVNFQAARPPEEVKAAFDDAIAARENEQQYIREAEAYTNEVQPRANGQAQRILEEARAYKAQTILEAQGEVARFAKLLPEYKAAPEITRERLYIETMEKVLGNTRKVLVNDKGGNLMVLPLDQMLKGGNAPAAKSDNGASNLLRLPPASSSTTSGASNTSSTSQGDIMDQRRANAQRNDYQRQGE [P0ABC7]	7 ± 0.75 h	–	6.71 ± 0.23 h	6.55 ± 0.23 h	6.38 ± 0.49 h	2.99 ± 0.1 h	13.1 ± 1 h	6.52 ± 0.65 h	13.8 ± 0.55 h	6.06 ± 0.31 h	13.98 ± 0.078 h	6.35 ± 0.6 h
MAYKHIGVAISGNEEDALLVNKALELARHNDAHLTLIHIDDGLSELYPGIYFPATEDILQLLKNKSDNKLYKLTKNIQWPKTKLRIERGEMPETLLEIMQKEQCDLLVCGHHHSFINRLMPAYRGMINKMSADLLIVPFIDK [P0AAB8]	4.18 ± 0.41 h	3.79 ± 0.29 h	3.73 h	4.56 ± 0.14 h	2.7 ± 0.18 h	2.99 h	9.51 ± 0.66 h	3.69 h	5.52 ± 0.12 h	4.66 ± 0.43 h	10.7 ± 0.12 h	5.49 h
MAYRSAPLYEDVIWRTHLQPQDPTLAQAVRATIAKHREHLLEFIRLDEPAPLNAMTLAQWSSPNVLSSLLAVYSDHIYRNQPMMIRENKPLISLWAQWYIGLMVPPLMLALLTQEKALDVSPEHFHAEFHETGRVACFWVDVCEDKNATPHSPQHRMETLISQALVPVVQALEATGEINGKLIWSNTGYLINWYLTEMKQLLGEATVESLRHALFFEKTLTNGEDNPLWRTVVLRDGLLVRRTCCQRYRLPDVQQCGDCTLK	3.38 ± 1.1 h	–	–	–	–	–	–	–	–	–	–	–
MAYYSIGDVAERCGINPVTLRAWQRRYGLLKPQRSEGGHRLFDEEDIQRIEEIKRWISNGVPVGKVKALLETTSQDTEDDWSRLQEEMMSILRMANPAKLRARIISLGREYPVDQLINHVYLPVRQRLVLDHNTSRIMSSMFDGALIEYAATSLFEMRRKPGKEAILMAWNVEERARLWLEAWRLSLSGWHISVLADPIESPRPELFPTQTLIVWTGMAPTRRQNELLQHWGEQGYKVIFHAP	4.63 ± 0.56 h	3.95 ± 2.5 h	1.93 h	–	1.79 ± 0.14 h	2.13 ± 0.29 h	4.42 ± 0.35 h	2 ± 0.16 h	2.72 ± 0.041 h	1.39 ± 0.094 h	5.43 h	3.02 ± 0.39 h
MCELLGMSANVPTDICFSFTGLVQRGGGTGPHKDGWGITFYEGKGCRTFKDPQPSFNSPIAKLVQDYPIKSCSVVAHIRQANRGEVALENTHPFTRELWGRNWTYAHNGQLTGYKSLETGNFRPVGETDSEKAFCWLLHKLTQRYPRTPGNMAAVFKYIASLADELRQKGVFNMLLSDGRYVMAYCSTNLHWITRRAPFGVATLLDQDVEIDFSSQTTPNDVVTVIATQPLTGNETWQKIMPGEWRLFCLGERVV	6.35 ± 0.88 h	5.84 ± 0.22 h	5.68 ± 0.45 h	6.32 ± 0.5 h	5.67 ± 0.13 h	3.37 ± 0.54 h	12.6 ± 1.6 h	5.695 ± 0.045 h	12.2 ± 1.4 h	5.83 ± 0.3 h	12.5 ± 0.73 h	6.2 ± 0.066 h
